According to patent publication US20210038648A1 (THOMAS JEFFERSON UNIVERSITY, published 2021):

Tests used:
[1] = molecular target: T1, human GUCY2C (hGUCY2C) on cells (human, UniProt P25092 24-1073); experiment: flow cytometry on CT26.hGUCY2C cells
T1 construct: whole, on cells; also called guanylyl cyclase C; GCC
Source text: Cells were authenticated by the original suppliers and routinely authenticated by morphology, growth, antibiotic resistance (where appropriate GUCY2C and β-galactosidase expression, and pattern of metastasis in vivo and routinely screened for mycoplasma using the Universal Mycoplasma Detection Kit (ATCC, Cat. No. 30-1012K). Before injection into mice, cells were routinely cultured for <2weeks. The gene encoding human GUCY2C was codon-optimized and synthesized (Gene Art, Life Technologies) and cloned into the retroviral construct pMSCVpuro (Clontech). CT26.hGUCY2C and CT26.CL25.hGUCY2C were generated by transducing CT26 and CT26.CL25 cells with retroviral supernatants encoding hGUCY2C, followed by selection with puromycin. […] The single chain variable fragment (scFv) from the human GUCY2C-specific antibody 5F9 was cloned into the pFUSE-rIgG-Fc2 (IL2ss) plasmid (Invivogen), producing a 5F9 scFv fusion protein with rabbit Fc (5F9-rFc), 5F9-rFc was collected in supernatants of transfected 293F cells (Life Technologies), titrated in ELISA plates (Nunc-Immuno PolySorp) coated with BSA or recombinant 6×His-tagged hGUCY2C extracellular domain (6×His-hGUCY2CECD) protein purified under contract from HEK293-6E cells by GenScript and detected with HRP-conjugated goat anti-rabbit (Jackson ImmunoResearch). […]

[2] = molecular target: T2, recombinant 6xHis-tagged hGUCY2C extracellular domain (6xHis-hGUCY2CECD) (human, UniProt P25092 24-430); experiment: ELISA; plate coated with 6xHis-hGUCY2CECD, 5F9-rFc titrated
T2 construct: extracellular domain; also called purified hGUCY2C extracellular domain; immobilized hGUCY2CECD protein; not shown: 6xHis tag
T2 sequence (P25092 24-430): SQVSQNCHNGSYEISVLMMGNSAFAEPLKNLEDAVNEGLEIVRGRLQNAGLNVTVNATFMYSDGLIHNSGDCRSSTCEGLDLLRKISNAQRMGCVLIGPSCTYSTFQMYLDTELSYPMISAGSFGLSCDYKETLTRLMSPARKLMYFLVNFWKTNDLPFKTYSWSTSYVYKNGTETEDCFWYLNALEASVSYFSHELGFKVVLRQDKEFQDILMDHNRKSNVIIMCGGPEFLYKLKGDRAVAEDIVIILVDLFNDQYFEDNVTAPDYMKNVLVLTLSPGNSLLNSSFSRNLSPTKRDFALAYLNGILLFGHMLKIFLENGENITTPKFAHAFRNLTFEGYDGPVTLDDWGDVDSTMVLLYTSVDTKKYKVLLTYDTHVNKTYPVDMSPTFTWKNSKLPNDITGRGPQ

T1 sequence (P25092 24-1073): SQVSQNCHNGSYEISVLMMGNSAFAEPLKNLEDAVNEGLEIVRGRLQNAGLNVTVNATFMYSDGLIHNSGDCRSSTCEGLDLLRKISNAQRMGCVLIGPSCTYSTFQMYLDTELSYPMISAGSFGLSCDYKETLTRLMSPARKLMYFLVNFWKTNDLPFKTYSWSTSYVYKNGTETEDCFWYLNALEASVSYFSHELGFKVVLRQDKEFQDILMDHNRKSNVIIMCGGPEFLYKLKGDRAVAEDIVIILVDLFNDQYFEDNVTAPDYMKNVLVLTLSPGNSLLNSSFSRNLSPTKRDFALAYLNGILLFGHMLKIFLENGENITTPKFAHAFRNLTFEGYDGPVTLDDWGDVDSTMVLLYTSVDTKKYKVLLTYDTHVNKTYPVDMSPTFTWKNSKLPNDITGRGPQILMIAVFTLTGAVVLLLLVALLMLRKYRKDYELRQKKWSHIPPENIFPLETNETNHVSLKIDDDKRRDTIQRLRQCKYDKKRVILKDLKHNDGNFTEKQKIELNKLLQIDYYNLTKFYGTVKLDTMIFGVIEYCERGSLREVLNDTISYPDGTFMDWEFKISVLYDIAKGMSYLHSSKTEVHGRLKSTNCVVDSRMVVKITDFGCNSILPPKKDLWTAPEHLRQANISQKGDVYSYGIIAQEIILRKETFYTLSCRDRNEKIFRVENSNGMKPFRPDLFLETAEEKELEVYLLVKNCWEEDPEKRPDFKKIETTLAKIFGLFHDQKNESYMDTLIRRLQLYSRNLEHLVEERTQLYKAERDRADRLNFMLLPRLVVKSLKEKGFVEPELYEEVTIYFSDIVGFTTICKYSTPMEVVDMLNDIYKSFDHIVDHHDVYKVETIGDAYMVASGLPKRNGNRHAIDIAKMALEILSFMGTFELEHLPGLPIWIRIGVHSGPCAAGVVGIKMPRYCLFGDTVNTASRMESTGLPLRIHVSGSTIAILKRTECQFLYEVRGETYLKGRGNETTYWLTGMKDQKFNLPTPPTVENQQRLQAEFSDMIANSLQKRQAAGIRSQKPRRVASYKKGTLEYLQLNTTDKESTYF

B1: 5F9 scFv fusion protein with rabbit Fc (5F9-rFc) (Fc fusion)
chain: EIVMTQSPATLSVSPGERATLSCRASQSVSRNLAWYQQKPGQAPRLLIYGASTRATGIPARFSGSGSGTEFTLTIGSLQSEDFAVYYCQQYKTWPRTFGQGTNVEIKASGGGGSGGGGSGGGGSGGGGSELQVQLQQWGAGLLKPSETLSLTCAVFGGSFSGYYWSWIRQPPGKGLEWIGEINHRGNTNDNPSLKSRVTISVDTSKNQFALKLSSVTAADTAVYYCARERGYTYGNFDHWGQGTLVTVSS
notes: Secreted from transfected 293F cells and used as supernatant; also called recombinant 5F9 antibody; 5F9 antibody; not shown: rabbit IgG Fc from plasmid pFUSE-rIgG-Fc2 (IL2ss) (Invivogen)
- binding result [1]: binds
- binding result [2]: binds
